“And” between values parts separate entries of the source, which are not always exact repeats. Equal values may be shown once.
Target: nucleosome containing the 193-bp Widom 601 DNA (24-bp linker DNAs at both ends) (human) (UniProt P04908)
Assay: mass photometry; 193-bp 601 nucleosome (1 µM) and DEK (2 µM) in 18 mM Tris-HCl pH 7.5, 60 mM NaCl, overnight at room temperature; diluted 1:40 for recording

Substance: recombinant human DEK protein (wild type) (from UniProt P35659 1-375) (natural protein)
- stoichiometry N (DEK molecules per nucleosome): 1 and 2
